For test [1], the target named is T1, 人FcRn (human, UniProt P55899 24-297; P61769 21-119, limits assumed).
T1 construct: immobilised on a CM5 chip (BIAcore) or biotinylated and captured on NeutrAvidin (ELISA); also called huFcRn; human FcRn
Briefly: ELISA, biotinylated human FcRn on NeutrAvidin plate, pH 6.0.

The target in test [2] is T1, 人FcRn. Briefly: ELISA, biotinylated human FcRn on NeutrAvidin plate, pH 7.4.
Test [3] has as its target T2, CD20 on WIL2-S cells (human, UniProt P11836 1-297).
T2 construct: whole, on cells; also called CD20抗原; 人CD20
T2 sequence (looked up): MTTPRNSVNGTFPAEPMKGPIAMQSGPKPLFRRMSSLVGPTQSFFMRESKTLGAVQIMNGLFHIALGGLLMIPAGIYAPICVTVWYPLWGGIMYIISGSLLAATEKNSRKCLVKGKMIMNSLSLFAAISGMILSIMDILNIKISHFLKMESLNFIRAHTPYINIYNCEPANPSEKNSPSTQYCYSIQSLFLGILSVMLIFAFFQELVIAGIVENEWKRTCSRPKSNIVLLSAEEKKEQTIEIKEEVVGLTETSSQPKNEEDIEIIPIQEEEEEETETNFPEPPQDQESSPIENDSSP
Briefly: competitive Scatchard on WIL2-S cells, apparent Kd; competitor of 125I-2H7.v138.

The target of test [4] is T2, CD20 on WIL2-S cells. Briefly: competitive Scatchard on WIL2-S cells, apparent Kd; competitor of 125I-2H7.v511.

T1 sequence (P55899 24-297 limits assumed, chain 1 of 2): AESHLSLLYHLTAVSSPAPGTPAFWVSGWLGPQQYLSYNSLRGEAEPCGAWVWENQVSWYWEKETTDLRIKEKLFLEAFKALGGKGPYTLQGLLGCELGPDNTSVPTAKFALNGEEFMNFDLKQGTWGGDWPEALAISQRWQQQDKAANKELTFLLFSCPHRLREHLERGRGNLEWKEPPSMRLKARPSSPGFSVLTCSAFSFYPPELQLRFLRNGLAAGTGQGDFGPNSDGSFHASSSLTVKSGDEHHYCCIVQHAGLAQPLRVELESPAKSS
T1 sequence (P61769 21-119 limits assumed, chain 2 of 2): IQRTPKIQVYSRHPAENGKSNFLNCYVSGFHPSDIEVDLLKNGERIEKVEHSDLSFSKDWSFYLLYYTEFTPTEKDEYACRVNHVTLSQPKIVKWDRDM

B1: 2H7.v477 (antibody, human IgG1, kappa)
heavy: EVQLVESGGGLVQPGGSLRLSCAASGYTFTSYNMHWVRQAPGKGLEWVGAIYPGNGATSYNQKFKGRFTISVDKSKNTLYLQMNSLRAEDTAVYYCARVVYYSASYWYFDVWGQGTLVTVSSASTKGPSVFPLAPSSKSTSGGTAALGCLVKDYFPEPVTVSWNSGALTSGVHTFPAVLQSSGLYSLSSVVTVPSSSLGTQTYICNVNHKPSNTKVDKKVEPKSCDKTHTCPPCPAPELLGGPSVFLFPPKPKDTLMISRTPEVTCVVVDVSHEDPEVKFNWYVDGVEVHNAKTKPREEQYNATYRVVSVLTVLHQDWLNGKEYKCKVSNAALPAPIAATISKAKGQPREPQVYTLPPSREEMTKNQVSLTCLVKGFYPSDIAVEWESNGQPENNYKTTPPVLDSDGSFFLYSKLTVDKSRWQQGNVFSCSVMHEALHWHYTQKSLSLSPGK
light: DIQMTQSPSSLSASVGDRVTITCRASSSVSYLHWYQQKPGKAPKPLIYAPSNLASGVPSRFSGSGSGTDFTLTISSLQPEDFATYYCQQWAFNPPTFGQGTKVEIKRTVAAPSVFIFPPSDEQLKSGTASVVCLLNNFYPREAKVQWKVDNALQSGNSQESVTEQDSKDSTYSLSSTLTLSKADYEKHKVYACEVTHQGLSSPVTKSFNRGEC
notes: IgG1; 2H7.v138 with N434W
With B1, the binding result with 人FcRn [1] is “binds”.

B2: 2H7.v478 (antibody, human IgG1, kappa, name in EU numbering)
heavy: EVQLVESGGGLVQPGGSLRLSCAASGYTFTSYNMHWVRQAPGKGLEWVGAIYPGNGATSYNQKFKGRFTISVDKSKNTLYLQMNSLRAEDTAVYYCARVVYYSASYWYFDVWGQGTLVTVSSASTKGPSVFPLAPSSKSTSGGTAALGCLVKDYFPEPVTVSWNSGALTSGVHTFPAVLQSSGLYSLSSVVTVPSSSLGTQTYICNVNHKPSNTKVDKKVEPKSCDKTHTCPPCPAPELLGGPSVFLFPPKPKDTLMISRTPEVTCVVVDVSHEDPEVKFNWYVDGVEVHNAKTKPREEQYNATYRVVSVLTVLHQDWLNGKEYKCKVSNAALPAPIAATISKAKGQPREPQVYTLPPSREEMTKNQVSLTCLVKGFYPSDIAVEWESNGQPENNYKTTPPVLDSDGSFFLYSKLTVDKSRWQQGNVFSCSVMHEALHFHYTQKSLSLSPGK
light: DIQMTQSPSSLSASVGDRVTITCRASSSVSYLHWYQQKPGKAPKPLIYAPSNLASGVPSRFSGSGSGTDFTLTISSLQPEDFATYYCQQWAFNPPTFGQGTKVEIKRTVAAPSVFIFPPSDEQLKSGTASVVCLLNNFYPREAKVQWKVDNALQSGNSQESVTEQDSKDSTYSLSSTLTLSKADYEKHKVYACEVTHQGLSSPVTKSFNRGEC
notes: IgG1; 2H7.v138 background with the N434 change
B2: in the test with 人FcRn [1], the binding result was “binds”.

B3: 2H7.v364 (antibody, human IgG1, kappa, name in EU numbering)
heavy: EVQLVESGGGLVQPGGSLRLSCAASGYTFTSYNMHWVRQAPGKGLEWVGAIYPGNGATSYNQKFKGRFTISVDKSKNTLYLQMNSLRAEDTAVYYCARVVYYSASYWYFDVWGQGTLVTVSSASTKGPSVFPLAPSSKSTSGGTAALGCLVKDYFPEPVTVSWNSGALTSGVHTFPAVLQSSGLYSLSSVVTVPSSSLGTQTYICNVNHKPSNTKVDKKVEPKSCDKTHTCPPCPAPELLGGPSVFLFPPKPKDTLMISRTPEVTCVVVDVSHEDPEVKFNWYVDGVEVHNAKTKPREEQYNATYRVVSVLTVLHQDWLNGKEYKCKVSNAALPAPIAATISKAKGQPREPQVYTLPPSREEMTKNQVSLTCLVKGFYPSDIAVEWESNGQPENNYKTTPPVLDSDGSFFLYSKLTVDKSRWQQGNVFSCSVMHEALHAHYTQKSLSLSPGK
light: DIQMTQSPSSLSASVGDRVTITCRASSSVSYLHWYQQKPGKAPKPLIYAPSNLASGVPSRFSGSGSGTDFTLTISSLQPEDFATYYCQQWAFNPPTFGQGTKVEIKRTVAAPSVFIFPPSDEQLKSGTASVVCLLNNFYPREAKVQWKVDNALQSGNSQESVTEQDSKDSTYSLSSTLTLSKADYEKHKVYACEVTHQGLSSPVTKSFNRGEC
notes: as for B2
In the case of B3, the binding result in the test with 人FcRn [2] is “binds”.

B4: 2H7.v138 (antibody, human IgG1, kappa)
heavy: EVQLVESGGGLVQPGGSLRLSCAASGYTFTSYNMHWVRQAPGKGLEWVGAIYPGNGATSYNQKFKGRFTISVDKSKNTLYLQMNSLRAEDTAVYYCARVVYYSASYWYFDVWGQGTLVTVSSASTKGPSVFPLAPSSKSTSGGTAALGCLVKDYFPEPVTVSWNSGALTSGVHTFPAVLQSSGLYSLSSVVTVPSSSLGTQTYICNVNHKPSNTKVDKKVEPKSCDKTHTCPPCPAPELLGGPSVFLFPPKPKDTLMISRTPEVTCVVVDVSHEDPEVKFNWYVDGVEVHNAKTKPREEQYNATYRVVSVLTVLHQDWLNGKEYKCKVSNAALPAPIAATISKAKGQPREPQVYTLPPSREEMTKNQVSLTCLVKGFYPSDIAVEWESNGQPENNYKTTPPVLDSDGSFFLYSKLTVDKSRWQQGNVFSCSVMHEALHNHYTQKSLSLSPGK
light: DIQMTQSPSSLSASVGDRVTITCRASSSVSYLHWYQQKPGKAPKPLIYAPSNLASGVPSRFSGSGSGTDFTLTISSLQPEDFATYYCQQWAFNPPTFGQGTKVEIKRTVAAPSVFIFPPSDEQLKSGTASVVCLLNNFYPREAKVQWKVDNALQSGNSQESVTEQDSKDSTYSLSSTLTLSKADYEKHKVYACEVTHQGLSSPVTKSFNRGEC
notes: IgG1
For B4, the binding result in the test with 人FcRn [2] is “binds”.

B5: 2H7.v479 (antibody, human IgG1, kappa, name in EU numbering)
heavy: EVQLVESGGGLVQPGGSLRLSCAASGYTFTSYNMHWVRQAPGKGLEWVGAIYPGNGATSYNQKFKGRFTISVDKSKNTLYLQMNSLRAEDTAVYYCARVVYYSASYWYFDVWGQGTLVTVSSASTKGPSVFPLAPSSKSTSGGTAALGCLVKDYFPEPVTVSWNSGALTSGVHTFPAVLQSSGLYSLSSVVTVPSSSLGTQTYICNVNHKPSNTKVDKKVEPKSCDKTHTCPPCPAPELLGGPSVFLFPPKPKDTLMISRTPEVTCVVVDVSHEDPEVKFNWYVDGVEVHNAKTKPREEQYNATYRVVSVLTVLHQDWLNGKEYKCKVSNAALPAPIAATISKAKGQPREPQVYTLPPSREEMTKNQVSLTCLVKGFYPSDIAVEWESNGQPENNYKTTPPVLDSDGSFFLYSKLTVDKSRWQQGNVFSCSVMHEALHYHYTQKSLSLSPGK
light: DIQMTQSPSSLSASVGDRVTITCRASSSVSYLHWYQQKPGKAPKPLIYAPSNLASGVPSRFSGSGSGTDFTLTISSLQPEDFATYYCQQWAFNPPTFGQGTKVEIKRTVAAPSVFIFPPSDEQLKSGTASVVCLLNNFYPREAKVQWKVDNALQSGNSQESVTEQDSKDSTYSLSSTLTLSKADYEKHKVYACEVTHQGLSSPVTKSFNRGEC
notes: as for B2
For the molecule B5, the binding result with 人FcRn [2] is on record as “binds”.

B6: hu2H7.v511 (antibody, human IgG1, kappa, V domains shown)
VH: EVQLVESGGGLVQPGGSLRLSCAASGYTFTSYNMHWVRQAPGKGLEWVGAIYPGNGATSYNQKFKGRFTISVDKSKNTLYLQMNSLRAEDTAVYYCARVVYYSYRYWYFDVWGQGTLVTVSS
VL: DIQMTQSPSSLSASVGDRVTITCRASSSVSYLHWYQQKPGKAPKPLIYAPSNLASGVPSRFSGSGSGTDFTLTISSLQPEDFATYYCQQWAFNPPTFGQGTKVEIKR
notes: full-length IgG1
As to B6, the values for the Kd with CD20 on WIL2-S cells [3] and in the test with CD20 on WIL2-S cells [4] were 0.11 nM and 0.45 nM, respectively.

The values are drawn from patent publication CN101151278A (GENENTECH INC, dated 2008).
